Measured values taken from patent US20150376286A1 (Amgen, published 2015).

T1: cynomolgus CGRP receptor (cynoCRLR + cynoRAMP1) (cynomolgus monkey)
T1 chain 1: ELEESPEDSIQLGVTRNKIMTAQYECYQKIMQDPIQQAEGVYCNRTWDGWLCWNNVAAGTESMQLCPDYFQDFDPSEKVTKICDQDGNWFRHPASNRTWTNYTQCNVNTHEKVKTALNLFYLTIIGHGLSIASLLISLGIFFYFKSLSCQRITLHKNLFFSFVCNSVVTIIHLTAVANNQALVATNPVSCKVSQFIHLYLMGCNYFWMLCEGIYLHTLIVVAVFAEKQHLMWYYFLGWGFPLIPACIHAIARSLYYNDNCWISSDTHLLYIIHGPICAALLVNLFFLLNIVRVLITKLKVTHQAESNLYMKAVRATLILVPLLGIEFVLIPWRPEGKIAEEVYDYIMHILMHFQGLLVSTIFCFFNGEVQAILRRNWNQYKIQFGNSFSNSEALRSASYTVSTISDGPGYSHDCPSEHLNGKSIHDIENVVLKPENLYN
T1 chain 2: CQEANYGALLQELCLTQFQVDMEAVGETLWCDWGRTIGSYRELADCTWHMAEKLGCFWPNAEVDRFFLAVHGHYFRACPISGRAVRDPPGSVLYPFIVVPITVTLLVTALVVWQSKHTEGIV

T2: soluble CGRP receptor-muFc fusion protein (human)
T2 construct: also called CGRP R-muFc; not shown: mouse Fc
T2 chain 1: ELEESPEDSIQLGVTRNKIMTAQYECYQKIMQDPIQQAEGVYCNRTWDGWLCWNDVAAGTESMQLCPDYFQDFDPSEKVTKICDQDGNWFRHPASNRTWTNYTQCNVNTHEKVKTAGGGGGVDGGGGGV
T2 chain 2: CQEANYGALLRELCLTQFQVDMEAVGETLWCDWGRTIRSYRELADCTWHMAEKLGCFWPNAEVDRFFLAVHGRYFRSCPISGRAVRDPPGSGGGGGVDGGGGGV

T3: chimeric CGRP receptor: CRLR wt + RAMP1 chimera #2 (Q43 to E53) (human; human/rat chimera, UniProt Q16602 23-461; O60894 27-148)
T3 construct: also called CRLR wt+RAMP1 Q43-E53
T3 chain 1: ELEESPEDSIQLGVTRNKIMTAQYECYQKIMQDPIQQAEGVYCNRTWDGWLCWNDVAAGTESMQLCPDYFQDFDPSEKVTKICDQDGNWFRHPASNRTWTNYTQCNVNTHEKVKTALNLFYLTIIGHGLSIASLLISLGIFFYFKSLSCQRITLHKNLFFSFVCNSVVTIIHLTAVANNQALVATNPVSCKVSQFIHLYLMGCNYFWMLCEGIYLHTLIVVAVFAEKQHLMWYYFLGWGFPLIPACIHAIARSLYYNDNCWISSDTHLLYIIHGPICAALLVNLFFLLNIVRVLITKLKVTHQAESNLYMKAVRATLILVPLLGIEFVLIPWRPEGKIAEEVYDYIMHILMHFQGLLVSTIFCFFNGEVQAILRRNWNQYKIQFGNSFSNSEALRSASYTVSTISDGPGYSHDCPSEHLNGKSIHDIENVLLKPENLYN
T3 chain 2: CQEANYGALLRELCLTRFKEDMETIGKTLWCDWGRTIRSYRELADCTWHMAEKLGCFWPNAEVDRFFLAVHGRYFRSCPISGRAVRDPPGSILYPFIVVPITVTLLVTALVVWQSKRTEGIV

T4: chimeric CGRP receptor: CRLR wt + RAMP1 chimera #3 (R67 to E78) (human; human/rat chimera, UniProt Q16602 23-461; O60894 27-148)
T4 construct: also called CRLR wt+RAMP1 R67-E78
T4 chain 1: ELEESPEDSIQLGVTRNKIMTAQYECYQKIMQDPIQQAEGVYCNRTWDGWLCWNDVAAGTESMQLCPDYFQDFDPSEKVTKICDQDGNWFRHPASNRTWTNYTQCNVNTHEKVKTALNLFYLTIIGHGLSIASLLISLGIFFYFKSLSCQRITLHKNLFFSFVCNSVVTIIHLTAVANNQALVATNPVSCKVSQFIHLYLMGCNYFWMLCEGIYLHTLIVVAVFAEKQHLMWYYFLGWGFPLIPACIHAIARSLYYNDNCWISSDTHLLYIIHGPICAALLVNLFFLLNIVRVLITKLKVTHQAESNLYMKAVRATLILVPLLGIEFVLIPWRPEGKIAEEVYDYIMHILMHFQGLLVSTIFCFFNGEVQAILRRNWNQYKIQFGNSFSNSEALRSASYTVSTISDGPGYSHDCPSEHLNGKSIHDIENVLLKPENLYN
T4 chain 2: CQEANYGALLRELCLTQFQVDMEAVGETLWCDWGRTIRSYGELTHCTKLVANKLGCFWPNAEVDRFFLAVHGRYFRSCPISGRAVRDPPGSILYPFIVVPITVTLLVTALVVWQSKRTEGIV


Key:
[1] = target: human adrenomedullin receptor 1 (hCRLR + hRAMP2) (human, UniProt O60895 43-175); experiment: cell-based or functional assay
[2] = target: human amylin AMY1 receptor (hCTR + hRAMP1) (human, UniProt P30988 25-474); experiment: cell-based or functional assay
[3] = target: human adrenomedullin receptor 2 (hCRLR + hRAMP3) (human, UniProt O60896 24-148); experiment: cell-based or functional assay
[4] = target: rat CGRP receptor (rat, UniProt Q63118 24-464; Q9JJ74 27-148); experiment: cell-based or functional assay
[5] = target: T1, cynomolgus CGRP receptor (cynoCRLR + …); experiment: cell-based or functional assay
[6] = target: T2, soluble CGRP receptor-muFc fusion …; experiment: Western blot
Experimental: The sample containing βME was then boiled for 4 min. […] Gels were electroblotted onto 0.2 μm nitrocellulose filters (Invitrogen). The blots were washed with Tris-buffered saline+1% Tween 20 (TBST) and then blocked with TBST+5% powered dry milk for 30 min. The blots were cut into strips along the molecular weight marker lanes. […] Blots were incubated with the antibodies for one hour followed by 3×10 min washes with TBST+1% milk. The blots treated with the huCGRP R antibodies were then incubated with goat anti-mouse IgG-Fc-HRP (1:10,000 in TBST+1% milk) and the blots treated with anti-huRAMP1 (N-20 anti-RAMP1 goat polyclonal antibody, Santa Cruz Biotech, CA) were incubated with rabbit anti-goat IgG-Fc-HRP (1:10,000) for 20 min. Blots were washed 3×15 min with TBST. The huCGRP R and anti-huRAMP1 antibody blots were treated with Pierce Supersignal West Pico Detection reagent, and the anti-mouse and anti-human IgG-Fc-HRP blots were treated with Pierce standard Detection Reagent (1 min.). Blots were then exposed with Kodak Biomax MS X-ray film.

[7] = target: T5, chimeric CGRP receptor: CRLR chimera #1 (L24 to Q33) + RAMP1 wt (human/rat chimera; human, UniProt Q16602 1-461; O60894 27-148); experiment: FACS on transfected 293-6E cells
T5 construct: also called CRLR L24-Q33+RAMP wt
Experimental: (§1) Cells were harvested after 72 hr, washed with PBS+0.5% BSA, and counted. Each transfected cell line was resuspended at a dilution of 5×10⁵ cells per 100 μl PBS/BSA. 100 μl of cell suspension was aliquot per well in a 96-well round-bottom plate (Falcon). The cells were pelleted at 1200 rpm for 5 min. […] Cells were incubated on ice for 1 hr. and then washed twice with PBS/BSA. […] Cells were incubated on ice in the dark for 1 hr. and then washed twice with PBS/BSA. Cells were resuspended in 200 μl PBS/BSA and analyzed using a FACS Calibur.

[8] = target: T3, chimeric CGRP receptor: CRLR wt + RAMP1 …; experiment: FACS on transfected 293-6E cells
Experimental: as §1

[9] = target: T6, human CGRP receptor (CRLR + RAMP1) (human, UniProt Q16602 23-461; O60894 27-148); experiment: FACS on transfected 293-6E cells
T6 construct: also called hCGRP R; huCGRP R
Experimental: as §1

[10] = target: T4, chimeric CGRP receptor: CRLR wt + RAMP1 …; experiment: FACS on transfected 293-6E cells
Experimental: as §1

[11] = target: T6, human CGRP receptor (CRLR + RAMP1); experiment: cell-based or functional assay
[12] = target: T6, human CGRP receptor (CRLR + RAMP1); experiment: 125I-CGRP competition binding, HTB-10 cell membranes
Experimental: The plates were incubated at room temperature for 2 hours with shaking at 60 rpm, and then the contents of each well were filtered over 0.5% polyethyleneimine (PEI)-treated (for at least one hour) GF/C 96-well filter plates. The GF/C filter plates were washed six times with ice-cold 50 mM Tris, pH 7.5 and dried in an oven at 55° C. for 1 hour. The bottoms of the GF/C plates were then sealed. 40 μl Microscint™ 20 was added to each well, the tops of the GF/C plates were sealed with TopSeal™-A (a press-on adhesive sealing film), and the GF/C plates were counted with TopCount NXT (Packard). The data were analyzed using Prizm (GraphPad Software Inc.)

[13] = target: T6, human CGRP receptor (CRLR + RAMP1); experiment: FACS Kd determination on AM-1 CHO huCGRP R cells; left-hand curve, cell density not labelled on the sheet
Experimental: (§2) Briefly, AM-1 CHO huCGRP R-expressing cells, prepared as described above, were plated in 96-well plates at densities of 16,000 or 160,000 cells per well in DMEM medium containing 10% FBS, NEAA, PS, L Glut, NaPyr and 0.05% sodium azide. […] After an overnight incubation at 4° C. in a total volume of 120 μl, on a plate shaker, the cells were washed 2× with PBS+2% FBS, centrifuging and discarding supernatant each time. 100 μl/well of G anti-Hu Fc Cy5 (5 μg/mL; Jackson ImmunoResearch Laboratories Inc., West Grove, Pa., USA) containing 7AAD (5 μl/well) was then added and incubated at 4° C. for 40 min. The cells were washed 2× with PBS+2% FBS, centrifuging and discarding the supernatant each time. 100 μl PBS+2% FBS buffer was then added and analyzed by FACS to determined the binding geomean. The Kd was calculated using KinExA software by taking the negative geomean at each antibody concentration as the amount of free Ab present Rathanaswami, et al., Biochemical and Biophysical Research Communications 334 (2005) 1004-1013.

[14] = target: T6, human CGRP receptor (CRLR + RAMP1); experiment: FACS Kd determination on AM-1 CHO huCGRP R cells; right-hand curve, cell density not labelled on the sheet
Experimental: as §2

[15] = target: T6, human CGRP receptor (CRLR + RAMP1); experiment: FACS on AM-1 CHO huCGRP R cells, KinExA n-curve analysis
Experimental: as §2

Row | Binder | cAMP assay IC50 [1] | cAMP assay IC50 [2] | cAMP assay IC50 [3] | cAMP assay IC50 [4] | cAMP assay IC50 [5] | binding result [6] | binding result [7] | binding result [8] | binding result [9] | binding result [10] | cAMP assay IC50 [11] | Ki [12] | EC50 (read off the curve) [13] | EC50 (read off the curve) [14] | Kd [15]
1 | 3B6 (antibody, human IgG2, lambda, V domains shown, also called 03B6; 03B6.2) VH: not shown VL: SSELTQDPTVSVALGQTVKITCQGDSLRSFYASWYQQKPGQAPVLVFYGKNNRPSGIPDRFSGSSSGNTASLTITGAQAEDEADYYCNSRDSSVYHLVLGGGTKLTVLG | > 1000 nM | > 1000 nM | > 1000 nM | > 1000 nM | 2.22 nM | binds |  |  |  |  |  |  |  |  | 
2 | 12G8 (antibody, human IgG2, lambda, V domains shown, also called 12G8.2) VH: QVQLVESGGGVVQPGRSLRLSCAASGFTFSSFGMHWVRQAPGKGLEWVAVISFDGSIKYSVDSVKGRFTISRDNSKNTLFLQMNSLRAEDTAVYYCARDRLNYYDSSGYYHYKYYGLAVWGQGTTVTVSS VL: QSVLTQPPSVSAAPGQKVTISCSGSSSNIGNNYVSWYQQLPGTAPKLLIYDNNKRPSGIPDRFSGSKSGTSATLGITGLQTGDEADYYCGTWDSRLSAVVFGGGTKLTVLG | > 1000 nM | > 1000 nM | > 1000 nM | > 1000 nM | 2.74 nM |  |  |  |  |  | 2.14 nM | 0.017 nM | ~2 nM | ~8 nM | 1.4 nM

Further lines, results first:

Row | cAMP assay IC50 [1] | cAMP assay IC50 [2] | cAMP assay IC50 [3] | cAMP assay IC50 [4] | cAMP assay IC50 [5] | binding result [6] | binding result [7] | binding result [8] | binding result [9] | binding result [10] | cAMP assay IC50 [11] | Ki [12] | EC50 (read off the curve) [13] | EC50 (read off the curve) [14] | Kd [15] | Binder
3 |  |  |  |  |  |  | binds | binds | binds | binds |  |  |  |  |  | 33B5 (antibody, V domains shown) VH: not shown VL: DIQMTQSPSSLSASVGDRVTITCRASQGIRNDLGWYQQKPGKAPKRLIYVASSLQSGVPSRFSGSGSGTEFTLTISSLQPEDFATYYCLQYNTYPLTFGGGTKVEIK
4 | > 1000 nM | > 1000 nM | > 1000 nM | > 1000 nM | 3.52 nM | binds |  |  |  |  |  |  |  |  |  | 4E4 (antibody, human IgG2, lambda, V domains shown, also called 04E4; 04E4.2) VH: QVQLVESGGGVVQPGRSLRLSCAASGFTFSSFGMHWVRQAPGKGLEWVAVISFDGSIKYSVDSVKGRFTISRDNSKNTLFLQMNSLRAEDTAVYYCARDRLNYYDSSGYYHYKYYGMAVWGQGTTVTVSS VL: QSVLTQPPSVSAAPGQKVTISCSGSSSNIGNNYVSWYQQLPGTAPKLLIYDNNKRPSGIPDRFSGSKSGTSTTLGITGLQTGDEADYYCGTWDSRLSAVVFGGGTKLTVLG
